In article PMC11206218 (Science Advances, 2020):

Molecular target: T1, S. cerevisiae Ggc1(C222S) with C-terminal His6-tag (S. cerevisiae, UniProt P38988 1-300, C222S)
T1 sequence (looked up): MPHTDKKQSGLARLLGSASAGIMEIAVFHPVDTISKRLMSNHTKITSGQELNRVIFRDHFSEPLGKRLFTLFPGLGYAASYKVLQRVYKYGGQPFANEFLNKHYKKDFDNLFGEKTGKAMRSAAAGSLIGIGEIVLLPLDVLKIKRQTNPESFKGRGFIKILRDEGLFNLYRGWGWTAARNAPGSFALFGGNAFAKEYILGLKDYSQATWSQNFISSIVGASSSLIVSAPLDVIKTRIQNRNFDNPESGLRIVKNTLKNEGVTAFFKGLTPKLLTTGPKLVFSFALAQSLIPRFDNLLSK
Test: pull-down

binding result: binds
B1: TIM8·13(Tim8_(K30F,S36L)) mutant chaperone complex (complex, S. cerevisiae)
chain 1: MSSLSTSDLASLDDTSKKEIATFLEGENSFQKVQMLIHQFTNICFKKCVESVNDSNLSSQEEQCLSNCVNRFLDTNIRIVNGLQNTR
chain 2: GGLSSIFGGGAPSQQKEAATTAKTTPNPIAKELKNQIAQELAVANATELVNKISENCFEKCLTSPYATRNDACIDQCLAKYMRSWNVISKAYISRIQNASASGEI
